Drawing on patent publication US20190083662A1 (CENTRE FOR PROBE DEVELOPMENT AND COMMERCIALIZATION, published 2019), this text covers Kd for three molecules.

First the molecules themselves.
B1: [^177Lu]-Compound A-HuMIGF-1R (antibody, V domains shown)
VH: QVQLVQSGAEVVKPGASVKLSCKASGYTFTSYWMHWVKQRPGQGLEWIGEINPSNGRTNYNQKFQGKATLTVDKSSSTAYMQLSSLTSEDSAVYYFARGRPDYYGSSKWYFDVWGQGTTVTVSSASTKGPSVFPLAPSSKSTSGGTAALG
VL: DVVMTQTPLSLPVSLGDPASISCRSSQSIVHSNVNTYLEWYLQKPGQSPRLLIYKVSNRFSGVPDRFSGSGAGTDFTLRISRVEAEDLGIYYCFQGSHVPPTFGGGTKLEIKRTVAAPSVFIFPPSDEQLKSGTASVVCLLNNFYPREAK
notes: Whole antibody HuMIGF-1R (AVE1642, humanized EM164; MALDI m/z about 149835) conjugated with the chelate Compound A (DOTA-GA anhydride) and loaded with 177Lu; also called 177Lu-DOTA-GA-AVE1642; (Compound A)-HuMIGF-1R radiolabelled with Lu-177
B2: [^177Lu]-Compound C-HuMIGF-1R (antibody, V domains shown)
VH: QVQLVQSGAEVVKPGASVKLSCKASGYTFTSYWMHWVKQRPGQGLEWIGEINPSNGRTNYNQKFQGKATLTVDKSSSTAYMQLSSLTSEDSAVYYFARGRPDYYGSSKWYFDVWGQGTTVTVSSASTKGPSVFPLAPSSKSTSGGTAALG
VL: DVVMTQTPLSLPVSLGDPASISCRSSQSIVHSNVNTYLEWYLQKPGQSPRLLIYKVSNRFSGVPDRFSGSGAGTDFTLRISRVEAEDLGIYYCFQGSHVPPTFGGGTKLEIKRTVAAPSVFIFPPSDEQLKSGTASVVCLLNNFYPREAK
notes: Whole antibody HuMIGF-1R (AVE1642) conjugated with the chelate Compound C (DOTA-GA with a PEG3 linker, TFP ester) and loaded with 177Lu; also called Compound C-HuMIGF-1R radiolabelled with Lu-177
B3: [^177Lu]-Compound B-HuMIGF-1R (antibody, V domains shown)
VH: QVQLVQSGAEVVKPGASVKLSCKASGYTFTSYWMHWVKQRPGQGLEWIGEINPSNGRTNYNQKFQGKATLTVDKSSSTAYMQLSSLTSEDSAVYYFARGRPDYYGSSKWYFDVWGQGTTVTVSSASTKGPSVFPLAPSSKSTSGGTAALG
VL: DVVMTQTPLSLPVSLGDPASISCRSSQSIVHSNVNTYLEWYLQKPGQSPRLLIYKVSNRFSGVPDRFSGSGAGTDFTLRISRVEAEDLGIYYCFQGSHVPPTFGGGTKLEIKRTVAAPSVFIFPPSDEQLKSGTASVVCLLNNFYPREAK
notes: Whole antibody HuMIGF-1R (AVE1642) conjugated with the chelate Compound B (DOTA-GA with an 11-aminoundecanoyl linker, TFP ester) and loaded with 177Lu; also called Compound B-HuMIGF-1R radiolabelled with Lu-177

T1 sequence (P08069 31-1367): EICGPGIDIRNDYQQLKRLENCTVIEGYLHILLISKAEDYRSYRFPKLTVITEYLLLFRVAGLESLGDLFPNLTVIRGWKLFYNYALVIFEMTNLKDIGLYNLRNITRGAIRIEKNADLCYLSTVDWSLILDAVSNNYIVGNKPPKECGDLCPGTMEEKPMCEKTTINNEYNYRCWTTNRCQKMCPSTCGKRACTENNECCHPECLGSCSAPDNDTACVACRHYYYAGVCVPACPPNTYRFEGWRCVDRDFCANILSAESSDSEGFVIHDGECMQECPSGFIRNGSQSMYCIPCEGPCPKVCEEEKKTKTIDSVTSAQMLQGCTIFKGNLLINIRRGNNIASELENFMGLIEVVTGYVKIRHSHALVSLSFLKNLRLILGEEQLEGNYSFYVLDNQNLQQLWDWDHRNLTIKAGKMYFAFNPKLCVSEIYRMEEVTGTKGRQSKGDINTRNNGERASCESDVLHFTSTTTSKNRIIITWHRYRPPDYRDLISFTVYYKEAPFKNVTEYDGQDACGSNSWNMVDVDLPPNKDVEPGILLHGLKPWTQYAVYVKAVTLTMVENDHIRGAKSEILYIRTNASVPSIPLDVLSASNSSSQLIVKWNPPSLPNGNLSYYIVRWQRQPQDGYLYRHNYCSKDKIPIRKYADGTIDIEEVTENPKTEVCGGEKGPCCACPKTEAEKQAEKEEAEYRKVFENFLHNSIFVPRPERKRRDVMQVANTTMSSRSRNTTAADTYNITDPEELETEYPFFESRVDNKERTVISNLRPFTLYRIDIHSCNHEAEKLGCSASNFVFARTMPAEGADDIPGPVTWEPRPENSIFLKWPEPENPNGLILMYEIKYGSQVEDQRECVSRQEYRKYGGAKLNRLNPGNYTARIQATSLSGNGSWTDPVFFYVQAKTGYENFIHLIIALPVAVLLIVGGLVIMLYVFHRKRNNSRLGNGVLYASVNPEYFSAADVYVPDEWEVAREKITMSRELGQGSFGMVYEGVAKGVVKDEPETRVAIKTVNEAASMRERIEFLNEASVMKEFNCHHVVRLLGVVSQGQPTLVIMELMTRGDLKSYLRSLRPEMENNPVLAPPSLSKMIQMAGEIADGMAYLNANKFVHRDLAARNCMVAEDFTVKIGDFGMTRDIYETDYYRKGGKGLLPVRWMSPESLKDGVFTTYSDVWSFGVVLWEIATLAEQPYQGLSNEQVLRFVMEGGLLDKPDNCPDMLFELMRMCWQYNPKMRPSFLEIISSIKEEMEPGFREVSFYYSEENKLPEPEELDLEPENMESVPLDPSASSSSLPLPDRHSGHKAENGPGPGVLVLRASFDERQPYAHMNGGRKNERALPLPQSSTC

This assay addresses T1, insulin-like growth factor-1 receptor (IGF-1R) (human, UniProt P08069 31-1367).
T1 construct: whole, on cells; Endogenous receptor on A431 cells ('IGF-1R expressing A431 cell line'); also called IGF-1 receptor
The assay can be described thus: saturation radioligand binding on A431 cells, 4 C, specific binding fitted to a single-site hyperbola. The method, then:
Nonspecific binding is typically assessed by measuring radioconjugate binding in the presence of a fixed concentration of HumIGF-1R that binds to essentially all the receptors. Since all the receptors are occupied by the HumIGF-1R, the radioconjugate only binds nonspecifically. Kd and Bₘₐₓ values are calculated by nonlinear regression analysis and computerized curve fitting.
The purpose of this assay was to ensure that these new radioconjugates maintained binding characteristics consistent with the native antibody in an IGF-1R expressing A431 cell line. Twenty-four hours prior to the start of the experiment, 1.5×10⁵ A431 cells were seeded in 48-well microplates in 500 μl supplemented medium. The radioconjugate was diluted with binding buffer (PBS+0.5% BSA) to a range of concentrations from 0.08 nM to 40 nM; final assay concentration 0.04 to 20 nM. At the start of the assay, the media is aspirated, discarded and 500 μI of serum-free DMEM was added to each well. The plates were incubated at 37° C. for 1 hour. Following incubation, media was aspirated from each well and discarded. The cells were washed and 100 μI of binding buffer (total binding) or 4 μM cold-antibody (non-specific binding) added to designated wells. Plates were incubated at 4° C. for 1 hour with mild shaking. […] The lysates were transferred to counting tubes and run with radioconjugate standards on the Wizard 1470 gamma counter to determine the radioactivity content (in counts per minute (CPM)) for each lysate. The remaining lysate from each well (25 μI) was transferred to a 96-well plate, and the protein content of each lysate determined using a standard protein quantification assay. Total, non-specific and specific ligand binding determinations, mass of bound conjugate in each lysate were calculated by converting lysate CPM to fmol bound using the specific activity of the conjugate standards and then normalizing the fmol bound to the protein content of each lysate(in milligrams). Specific binding was determined by subtracting the non-specific binding from total binding.
What is called Kd is a measure of binding affinity in units of concentration. In the case of B1, the Kd stood at 2.9 nM.
To B2 belongs 2.2 nM; to B3, 2 nM.
